# Measured values published in US20060257938A1, “Method of screening for drugs that block ligand binding to a lipid binding protein” (priority 2005, published 2006).
# Positions count from the first letter of the chain named. Where “and” joins values, the source holds several entries; their conditions need not be identical. Identical values can stand only once.
# B1: 17I, 72A (protein, listed as Rattus norvegicus)
# chain: AFDGTWKVDRNENYEKIMEKMGINVVKRKLGAHDNLKLTITQEGNKFTVKESSNFRNIDVVFELGVDFAYSAADGTELTGTWTMEGNKLVGKFKRVDNGKELIAVREISGNELIQTYTYEGVEAKRIFKKE
# modifications: PEPTIDE (1)...(131) wild-type rat intestinal fatty acid binding protein
# B2: 17T, 72A (protein, listed as Rattus norvegicus)
# chain: B1 chain with I17T
# modifications: PEPTIDE (1)...(131) wild-type rat intestinal fatty acid binding protein
# B3: 23K1, 72A (protein, listed as Rattus norvegicus)
# chain: B1 chain with I17F, I23K
# modifications: PEPTIDE (1)...(131) wild-type rat intestinal fatty acid binding protein
# B4: 21W, 72A (protein, listed as Rattus norvegicus)
# chain: B1 chain with I17F, M21W
# modifications: PEPTIDE (1)...(131) wild-type rat intestinal fatty acid binding protein
# B5: 17Y, 72A (protein, listed as Rattus norvegicus)
# chain: B1 chain with I17Y
# modifications: PEPTIDE (1)...(131) wild-type rat intestinal fatty acid binding protein
# B6: 17W, 72A (protein, listed as Rattus norvegicus)
# chain: B1 chain with I17W
# modifications: PEPTIDE (1)...(131) wild-type rat intestinal fatty acid binding protein
# B7: 17N, 72A (protein, listed as Rattus norvegicus)
# chain: B1 chain with I17N
# modifications: PEPTIDE (1)...(131) wild-type rat intestinal fatty acid binding protein
# B8: 23F2, 72A (protein, listed as Rattus norvegicus)
# chain: B1 chain with I17F, I23F
# modifications: PEPTIDE (1)...(131) wild-type rat intestinal fatty acid binding protein
# B9: 17R, 72A (protein, listed as Rattus norvegicus)
# chain: B1 chain with I17R
# modifications: PEPTIDE (1)...(131) wild-type rat intestinal fatty acid binding protein
# B10: 17M, 72A (protein, listed as Rattus norvegicus)
# chain: B1 chain with I17M
# modifications: PEPTIDE (1)...(131) wild-type rat intestinal fatty acid binding protein
# B11: 17V, 72A (protein, listed as Rattus norvegicus)
# chain: B1 chain with I17V
# modifications: PEPTIDE (1)...(131) wild-type rat intestinal fatty acid binding protein
# B12: 18Q, 72A (protein, listed as Rattus norvegicus)
# chain: B1 chain with I17F, M18Q
# modifications: PEPTIDE (1)...(131) wild-type rat intestinal fatty acid binding protein
# B13: 23N1, 72A (protein, listed as Rattus norvegicus)
# chain: B1 chain with I17F, I23N
# modifications: PEPTIDE (1)...(131) wild-type rat intestinal fatty acid binding protein
# B14: 17L, 72A (protein, listed as Rattus norvegicus)
# chain: B1 chain with I17L
# modifications: PEPTIDE (1)...(131) wild-type rat intestinal fatty acid binding protein
# B15: 17K 72A (protein, listed as Rattus norvegicus)
# chain: B1 chain with I17K
# modifications: PEPTIDE (1)...(131) wild-type rat intestinal fatty acid binding protein
# B16: 23L3, 72A (protein, listed as Rattus norvegicus)
# chain: B1 chain with I17F, I23L
# modifications: PEPTIDE (1)...(131) wild-type rat intestinal fatty acid binding protein
# B17: 17Q, 72A (protein, listed as Rattus norvegicus)
# chain: B1 chain with I17Q
# modifications: PEPTIDE (1)...(131) wild-type rat intestinal fatty acid binding protein
# B18: 23H1, 72A (protein, listed as Rattus norvegicus)
# chain: B1 chain with I17F, I23H
# modifications: PEPTIDE (1)...(131) wild-type rat intestinal fatty acid binding protein
# B19: 17S, 72A (protein, listed as Rattus norvegicus)
# chain: B1 chain with I17S
# modifications: PEPTIDE (1)...(131) wild-type rat intestinal fatty acid binding protein
# B20: 17P, 72A (protein, listed as Rattus norvegicus)
# chain: B1 chain with I17P
# modifications: PEPTIDE (1)...(131) wild-type rat intestinal fatty acid binding protein
# Assay: Probe fluorescence ratio response to arachidonic acid relative to ADIFAB2
# Format: binding
# Settings: arachidonic acid; response relative to ADIFAB2
# How it was run: (§1)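 Each fatty acid's response was expressed relative to ADIFAB2, the rI-FABP-L72A probe, as ΔR/ΔRreference. ΔR is the change in the background-corrected two-wavelength intensity ratio R=Fλ1/Fλ2 from its analyte-free baseline R0. Emission was read near about 420-480 nm for unbound and about 495-580 nm for FFA-bound probe.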
row,Molecule,DR/DR AA
1,B1,0.64
2,B2,0.50
3,B3,0.13
4,B4,3.70
5,B5,0.73 and 0.729
6,B6,1.42 and 1.421
7,B7,0.47
8,B8,0.22
9,B9,0.43
10,B10,0.59
11,B11,0.64 and 0.639
12,B12,0.09
13,B13,0.12
14,B14,0.52 and 0.525
15,B15,0.28
16,B16,1.17
17,B17,0.62
18,B18,0.16
19,B19,0.50
20,B20,0.51

# Assay: Probe fluorescence ratio response to linolenic acid relative to ADIFAB2
# Format: binding
# Settings: response relative to ADIFAB2
# How it was run: as §1
row,Molecule,DR/DR LNA
1,B1,0.54 and 0.541
2,B2,0.51
3,B3,0.13
4,B4,2.40
5,B5,0.81 and 0.806
6,B6,1.61 and 1.611
7,B7,0.51
8,B8,0.17
9,B9,0.48
10,B10,0.53 and 0.532
11,B11,0.59 and 0.586
12,B12,0.13
13,B13,0.13
14,B14,0.45 and 0.447
15,B15,0.29
16,B16,1.03
17,B17,0.59
18,B18,0.17
19,B19,0.61
20,B20,0.63

# Assay: Probe fluorescence ratio response to linoleic acid relative to ADIFAB2
# Format: binding
# Settings: response relative to ADIFAB2
# How it was run: as §1
row,Molecule,DR/DR LA
1,B1,0.50 and 0.499
2,B2,0.51
3,B3,0.14
4,B4,2.43
5,B5,0.71 and 0.712
6,B6,1.42 and 1.416
7,B7,0.50
8,B8,0.19
9,B9,0.52
10,B10,0.49 and 0.489
11,B11,0.55 and 0.549
12,B12,0.11
13,B13,0.13
14,B14,0.42
15,B15,0.33
16,B16,1.04
17,B17,0.59
18,B18,0.13
19,B19,0.56
20,B20,0.60

# Assay: Probe fluorescence ratio response to oleic acid relative to ADIFAB2
# Format: binding
# Settings: response relative to ADIFAB2
# How it was run: as §1
row,Molecule,DR/DR OA
1,B1,0.62 and 0.624
2,B2,0.49
3,B3,0.13
4,B4,3.02
5,B5,0.73 and 0.732
6,B6,1.24 and 1.241
7,B7,0.49
8,B8,0.20
9,B9,0.45
10,B10,0.49
11,B11,0.56 and 0.558
12,B12,0.08
13,B13,0.12
14,B14,0.46 and 0.459
15,B15,0.31
16,B16,1.06
17,B17,0.55
18,B18,0.11
19,B19,0.47
20,B20,0.55

# Assay: Probe fluorescence ratio response to palmitic acid relative to ADIFAB2
# Format: binding
# Settings: response relative to ADIFAB2
# How it was run: as §1
row,Molecule,DR/DR PA
1,B1,0.28 and 0.283
2,B2,0.25
3,B3,0.08
4,B4,1.45
5,B5,0.50
6,B6,1.07 and 1.067
7,B7,0.22
8,B8,0.12
9,B9,0.22
10,B10,0.28 and 0.281
11,B11,0.31 and 0.308
12,B12,0.09
13,B13,0.10
14,B14,0.28 and 0.279
15,B15,0.13
16,B16,0.93
17,B17,0.29
18,B18,0.13
19,B19,0.25
20,B20,0.24
